# Measurements taken from publication PMC9482650, “Quantitative fragmentomics allow affinity mapping of interactomes” (Nature Communications, 2022).
# T1: APBA1_1, Q02410
# T1 sequence (Q02410 651-752, limits assumed, looked up): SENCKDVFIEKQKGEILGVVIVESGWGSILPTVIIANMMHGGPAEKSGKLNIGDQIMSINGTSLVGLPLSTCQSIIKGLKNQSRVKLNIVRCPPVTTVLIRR
# T2: APBA2_2, Q99767
# T2 sequence (Q99767 654-744, limits assumed, looked up): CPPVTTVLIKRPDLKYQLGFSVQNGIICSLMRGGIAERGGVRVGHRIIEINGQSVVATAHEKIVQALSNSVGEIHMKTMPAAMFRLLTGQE
# T3: ARHGEF11, O15085
# T3 sequence (O15085 42-136, limits assumed, looked up): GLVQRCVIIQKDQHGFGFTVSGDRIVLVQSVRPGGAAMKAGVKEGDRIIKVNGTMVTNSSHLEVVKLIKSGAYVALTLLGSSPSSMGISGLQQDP
# T4: CARD11, Q9BXL7
# T4 sequence (Q9BXL7 662-765, limits assumed, looked up): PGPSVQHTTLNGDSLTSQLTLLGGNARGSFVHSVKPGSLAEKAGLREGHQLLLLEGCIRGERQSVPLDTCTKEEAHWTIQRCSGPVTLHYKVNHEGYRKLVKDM
# T5: DLG3_1, Q92796
# T5 sequence (Q92796 125-227, limits assumed, looked up): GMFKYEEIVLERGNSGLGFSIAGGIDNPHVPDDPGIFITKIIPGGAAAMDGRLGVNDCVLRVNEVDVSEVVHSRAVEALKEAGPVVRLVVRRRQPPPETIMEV
# T6: GRIP1_2, Q9Y3R0
# T6 sequence (Q9Y3R0 145-248, limits assumed, looked up): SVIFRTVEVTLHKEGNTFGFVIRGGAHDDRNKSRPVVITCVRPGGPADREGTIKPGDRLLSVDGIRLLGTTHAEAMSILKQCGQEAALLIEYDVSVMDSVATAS
# T7: LNX2_2, Q8N448
# T7 sequence (Q8N448 334-432, limits assumed, looked up): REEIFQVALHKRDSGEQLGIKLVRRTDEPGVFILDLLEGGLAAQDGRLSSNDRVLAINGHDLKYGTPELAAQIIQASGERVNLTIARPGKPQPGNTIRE
# T8: MPDZ_5, O75970
# T8 sequence (O75970 695-796, limits assumed, looked up): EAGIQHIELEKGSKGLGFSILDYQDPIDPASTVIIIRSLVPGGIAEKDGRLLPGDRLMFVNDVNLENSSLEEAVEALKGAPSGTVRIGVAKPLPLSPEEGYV
# T9: MPP2, Q14168
# T9 sequence (Q14168 180-250, limits assumed, looked up): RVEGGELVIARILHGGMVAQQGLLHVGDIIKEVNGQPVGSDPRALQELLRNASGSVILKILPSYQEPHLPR
# T10: RADIL, Q96JH8
# T10 sequence (Q96JH8 971-1071, limits assumed, looked up): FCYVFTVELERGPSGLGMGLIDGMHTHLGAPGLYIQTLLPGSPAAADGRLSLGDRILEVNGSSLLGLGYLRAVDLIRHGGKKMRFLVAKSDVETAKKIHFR
# T11: SNTB1, Q13884
# T11 sequence (Q13884 107-205, limits assumed, looked up): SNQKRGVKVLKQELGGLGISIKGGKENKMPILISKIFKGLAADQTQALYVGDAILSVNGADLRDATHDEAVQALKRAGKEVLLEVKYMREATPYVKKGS
# T12: TX1BP3, O14907
# T12 sequence (O14907 10-122, limits assumed, looked up): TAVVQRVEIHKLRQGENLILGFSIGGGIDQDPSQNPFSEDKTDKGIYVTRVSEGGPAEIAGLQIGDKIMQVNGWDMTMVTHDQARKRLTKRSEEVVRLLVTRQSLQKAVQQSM
# Legend:
# Assay in all cases: holdup assay
# Set-up in all cases: key: below the threshold = too weak to quantify, mostly under pKd 3.1 to 4
# Settings in all cases: plain residues with an end cap or a label only (N-terminal biotin on a linker: ado-ado)
# AHNAK1, Q09666 = target: AHNAK1, Q09666
# AHNAK1, Q09666, sequence (Q09666 4-100): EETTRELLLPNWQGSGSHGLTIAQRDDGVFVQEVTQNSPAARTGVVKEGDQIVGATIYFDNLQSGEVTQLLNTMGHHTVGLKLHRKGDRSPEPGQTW
# APBA1_1, Q02410 = target: T1, APBA1_1, Q02410
# APBA2_2, Q99767 = target: T2, APBA2_2, Q99767
# ARHGEF11, O15085 = target: T3, ARHGEF11, O15085
# CARD11, Q9BXL7 = target: T4, CARD11, Q9BXL7
# DLG1_1, Q12959 = target: DLG1_1, Q12959
# DLG1_3, Q12959 = target: DLG1_3, Q12959
# DLG2_3, Q15700 = target: DLG2_3, Q15700
# DLG3_1, Q92796 = target: T5, DLG3_1, Q92796
# DLG4_2, P78352 = target: DLG4_2, P78352
# DLG4_2, P78352, sequence (P78352 155-259): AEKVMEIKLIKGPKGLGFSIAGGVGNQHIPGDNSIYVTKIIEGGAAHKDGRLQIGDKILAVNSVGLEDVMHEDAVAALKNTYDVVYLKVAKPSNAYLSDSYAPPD
# GRIP1_2, Q9Y3R0 = target: T6, GRIP1_2, Q9Y3R0
# Inadl_10, Q8NI35 = target: Inadl_10, Q8NI35
# Inadl_10, Q8NI35, sequence (Q8NI35 1673-1763): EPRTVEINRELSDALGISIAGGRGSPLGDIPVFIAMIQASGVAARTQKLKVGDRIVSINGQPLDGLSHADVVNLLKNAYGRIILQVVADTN
# LAP2, Q96RT1 = target: LAP2, Q96RT1
# LAP2, Q96RT1, sequence (Q96RT1 other isoform, or with tags, fused parts or gaps): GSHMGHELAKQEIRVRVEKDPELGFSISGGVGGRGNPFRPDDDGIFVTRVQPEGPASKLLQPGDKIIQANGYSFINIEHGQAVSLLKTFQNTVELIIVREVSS
# LNX1_2, Q8TBB1 = target: LNX1_2, Q8TBB1
# LNX1_2, Q8TBB1, sequence (Q8TBB1 371-470): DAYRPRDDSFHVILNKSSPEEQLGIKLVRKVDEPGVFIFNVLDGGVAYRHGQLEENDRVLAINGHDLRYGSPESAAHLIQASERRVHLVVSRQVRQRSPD
# LNX2_2, Q8N448 = target: T7, LNX2_2, Q8N448
# MAGI2_4, Q86UL8 = target: MAGI2_4, Q86UL8
# MAGI2_4, Q86UL8, sequence (Q86UL8 772-865): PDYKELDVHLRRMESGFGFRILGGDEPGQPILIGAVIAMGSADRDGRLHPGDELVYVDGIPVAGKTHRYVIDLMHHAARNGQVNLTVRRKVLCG
# MAGI3_2, Q5TCQ9 = target: MAGI3_2, Q5TCQ9
# MAGI3_2, Q5TCQ9, sequence (Q5TCQ9 398-503): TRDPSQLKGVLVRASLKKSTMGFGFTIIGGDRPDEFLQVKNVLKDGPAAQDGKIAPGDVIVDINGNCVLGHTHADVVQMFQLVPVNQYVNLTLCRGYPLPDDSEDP
# MPDZ_5, O75970 = target: T8, MPDZ_5, O75970
# MPP2, Q14168 = target: T9, MPP2, Q14168
# PDZRN4_1, Q6ZMN7 = target: PDZRN4_1, Q6ZMN7
# PDZRN4_1, Q6ZMN7, sequence (Q6ZMN7 213-318): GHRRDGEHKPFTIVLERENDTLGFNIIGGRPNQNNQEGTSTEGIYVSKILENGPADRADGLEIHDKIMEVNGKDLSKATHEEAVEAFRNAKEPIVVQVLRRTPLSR
# PICK1, Q9NRD5 = target: PICK1, Q9NRD5
# PICK1, Q9NRD5, sequence (Q9NRD5 17-115): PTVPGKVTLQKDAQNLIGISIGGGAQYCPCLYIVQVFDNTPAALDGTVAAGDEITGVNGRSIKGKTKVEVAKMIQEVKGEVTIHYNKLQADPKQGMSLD
# RADIL, Q96JH8 = target: T10, RADIL, Q96JH8
# SNTB1, Q13884 = target: T11, SNTB1, Q13884
# TJP1_2, Q07157 = target: TJP1_2, Q07157
# TJP1_2, Q07157, sequence (Q07157 181-274): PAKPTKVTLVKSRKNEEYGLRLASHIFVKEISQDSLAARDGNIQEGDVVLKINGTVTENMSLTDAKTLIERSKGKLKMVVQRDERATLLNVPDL
# TJP2_1, Q9UDY2 = target: TJP2_1, Q9UDY2
# TJP2_1, Q9UDY2, sequence (Q9UDY2 24-128): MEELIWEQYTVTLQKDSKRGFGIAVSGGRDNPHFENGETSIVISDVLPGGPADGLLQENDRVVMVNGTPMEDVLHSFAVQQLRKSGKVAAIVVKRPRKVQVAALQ
# TX1BP3, O14907 = target: T12, TX1BP3, O14907
"pKd (AHNAK1, Q09666)","pKd (APBA1_1, Q02410)","pKd (APBA2_2, Q99767)","pKd (ARHGEF11, O15085)","pKd (CARD11, Q9BXL7)","pKd (DLG1_1, Q12959)","pKd (DLG1_3, Q12959)","pKd (DLG2_3, Q15700)","pKd (DLG3_1, Q92796)","pKd (DLG4_2, P78352)","pKd (GRIP1_2, Q9Y3R0)","pKd (Inadl_10, Q8NI35)","pKd (LAP2, Q96RT1)","pKd (LNX1_2, Q8TBB1)","pKd (LNX2_2, Q8N448)","pKd (MAGI2_4, Q86UL8)","pKd (MAGI3_2, Q5TCQ9)","pKd (MPDZ_5, O75970)","pKd (MPP2, Q14168)","pKd (PDZRN4_1, Q6ZMN7)",Binder,further results
below the threshold,below the threshold,below the threshold,4.79,3.49,4.25,4.64,4.41,3.87,4.4,3.59,below the threshold,4.93,3.59,3.98,3.68,4.27,3.56,below the threshold,4.98,"EVEEFPETSV [TRPV3, Q8NET8]","pKd (PICK1, Q9NRD5): below the threshold; pKd (RADIL, Q96JH8): 3.81; pKd (SNTB1, Q13884): 5.23; pKd (TJP1_2, Q07157): 3.52; pKd (TJP2_1, Q9UDY2): below the threshold; pKd (TX1BP3, O14907): 4.8"
below the threshold,below the threshold,below the threshold,4.77,below the threshold,below the threshold,below the threshold,below the threshold,below the threshold,3.48,below the threshold,below the threshold,below the threshold,below the threshold,below the threshold,below the threshold,below the threshold,below the threshold,below the threshold,3.66,"QGLAERISVL [PRKD2, Q9BZL6]","pKd (PICK1, Q9NRD5): 4.17; pKd (RADIL, Q96JH8): 3.99; pKd (SNTB1, Q13884): 4.92; pKd (TJP1_2, Q07157): below the threshold; pKd (TJP2_1, Q9UDY2): below the threshold; pKd (TX1BP3, O14907): 4.38"
below the threshold,below the threshold,below the threshold,below the threshold,below the threshold,below the threshold,below the threshold,3.67,below the threshold,below the threshold,below the threshold,below the threshold,below the threshold,below the threshold,below the threshold,below the threshold,below the threshold,below the threshold,below the threshold,below the threshold,"NHSSSPETTA [TRMT13, Q9NUP7]","pKd (PICK1, Q9NRD5): below the threshold; pKd (RADIL, Q96JH8): below the threshold; pKd (SNTB1, Q13884): below the threshold; pKd (TJP1_2, Q07157): below the threshold; pKd (TJP2_1, Q9UDY2): below the threshold; pKd (TX1BP3, O14907): 3.87"
below the threshold,below the threshold,below the threshold,3.96,below the threshold,3.78,4.13,4.42,below the threshold,3.86,below the threshold,below the threshold,below the threshold,below the threshold,3.51,3.72,5.12,below the threshold,below the threshold,below the threshold,"LPHPHSTTRV [NLGN2, Q8NFZ4]","pKd (PICK1, Q9NRD5): 4.24; pKd (RADIL, Q96JH8): 3.87; pKd (SNTB1, Q13884): 4.22; pKd (TJP1_2, Q07157): below the threshold; pKd (TJP2_1, Q9UDY2): 3.97; pKd (TX1BP3, O14907): 3.79"
below the threshold,below the threshold,below the threshold,below the threshold,below the threshold,below the threshold,below the threshold,below the threshold,below the threshold,below the threshold,below the threshold,below the threshold,below the threshold,below the threshold,4.07,3.54,below the threshold,below the threshold,below the threshold,below the threshold,"PAPSSGKDYV [CLDN1, O95832]","pKd (PICK1, Q9NRD5): below the threshold; pKd (RADIL, Q96JH8): 4; pKd (SNTB1, Q13884): below the threshold; pKd (TJP1_2, Q07157): below the threshold; pKd (TJP2_1, Q9UDY2): 3.71; pKd (TX1BP3, O14907): below the threshold"
